The text below walks through data of doi:10.1101/2025.01.22.633148 (bioRxiv, 2025).

As a reminder, the Kd is the concentration at which binding is half-saturated.

Assay [1] has as its target Hsp70 nucleotide-binding domain (Hsp70NBD). Briefly: ITC. Background: ITC needs no label: the signal is the heat of the interaction.
Assay [2] concerns the target Human Rpn1, full-length, recombinant (human, UniProt Q13200 1-908). Put plainly: ITC.

Chain of Human Rpn1, full-length, recombinant (Q13200 whole entry): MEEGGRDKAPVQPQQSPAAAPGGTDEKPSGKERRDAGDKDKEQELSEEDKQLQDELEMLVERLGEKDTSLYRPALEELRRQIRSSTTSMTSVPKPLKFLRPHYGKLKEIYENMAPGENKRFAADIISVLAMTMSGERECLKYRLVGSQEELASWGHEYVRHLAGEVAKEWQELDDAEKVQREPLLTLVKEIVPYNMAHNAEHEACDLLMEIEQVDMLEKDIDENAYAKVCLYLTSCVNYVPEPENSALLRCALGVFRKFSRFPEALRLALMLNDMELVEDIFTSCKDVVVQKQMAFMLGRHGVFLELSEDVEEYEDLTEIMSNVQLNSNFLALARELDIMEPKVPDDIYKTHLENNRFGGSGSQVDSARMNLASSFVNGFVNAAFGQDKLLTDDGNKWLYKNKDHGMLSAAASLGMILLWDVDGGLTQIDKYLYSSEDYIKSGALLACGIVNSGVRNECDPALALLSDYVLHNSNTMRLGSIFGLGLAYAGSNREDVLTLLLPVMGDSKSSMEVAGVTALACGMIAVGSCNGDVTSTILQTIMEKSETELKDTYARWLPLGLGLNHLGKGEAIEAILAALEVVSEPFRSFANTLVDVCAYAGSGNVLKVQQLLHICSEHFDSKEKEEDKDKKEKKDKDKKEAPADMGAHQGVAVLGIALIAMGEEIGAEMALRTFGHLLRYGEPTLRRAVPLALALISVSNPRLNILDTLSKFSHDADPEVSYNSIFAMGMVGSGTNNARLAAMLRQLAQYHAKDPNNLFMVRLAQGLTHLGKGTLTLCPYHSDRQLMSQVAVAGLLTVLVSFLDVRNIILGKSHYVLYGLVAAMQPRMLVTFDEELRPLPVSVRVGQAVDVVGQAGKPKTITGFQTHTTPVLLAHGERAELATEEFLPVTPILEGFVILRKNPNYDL

B1: Bag1 (Bcl-2 associated anthanogene 1), full-length (natural protein)
chain: MNRSQEVTRDEESTRSEEVTREEMAAAGLTVTVTHSNEKHDLHVTSQQGSSEPVVQDLAQVVEEVIGVPQSFQKLIFKGKSLKEMETPLSALGIQDGCRVMLIGKKNSPQEEVELKKLKHLEKSVEKIADQLEELNKELTGIQQGFLPKDLQAEALCKLDRRVKATIEQFMKILEEIDTLILPENFKDSRLKRKGLVKKVQAFLAECDTVEQNICQETERLQSTNFALAE
For the molecule B1, the Kd in assay [1] is 0.05 µM; in assay [2], ~0.5 µM.
